Assay results as given in patent US11351270B2, “Junctophilin-2 fragments and uses therefor” (University of Iowa Research Foundation, priority 2016, dated 2022).
Peptide text beside a SMILES is read from it. * marks the point of attachment. Cbz = O=C(OCc1ccccc1)*; CH2F = FC*

Tests used:
human calpain I = target: T1, human calpain I (Homo sapiens, UniProt P07384); test: In vitro calpain-mediated proteolysis reaction; format: biochemical; conditions: for JP2 degradation by calpain I: WT mouse heart lysates, 3 mM free Ca2+, Z-LLY-FMK 20 μM, EDTA 5 mM
T1 construct: purchased Calbiochem
T1 sequence (P07384 1-714): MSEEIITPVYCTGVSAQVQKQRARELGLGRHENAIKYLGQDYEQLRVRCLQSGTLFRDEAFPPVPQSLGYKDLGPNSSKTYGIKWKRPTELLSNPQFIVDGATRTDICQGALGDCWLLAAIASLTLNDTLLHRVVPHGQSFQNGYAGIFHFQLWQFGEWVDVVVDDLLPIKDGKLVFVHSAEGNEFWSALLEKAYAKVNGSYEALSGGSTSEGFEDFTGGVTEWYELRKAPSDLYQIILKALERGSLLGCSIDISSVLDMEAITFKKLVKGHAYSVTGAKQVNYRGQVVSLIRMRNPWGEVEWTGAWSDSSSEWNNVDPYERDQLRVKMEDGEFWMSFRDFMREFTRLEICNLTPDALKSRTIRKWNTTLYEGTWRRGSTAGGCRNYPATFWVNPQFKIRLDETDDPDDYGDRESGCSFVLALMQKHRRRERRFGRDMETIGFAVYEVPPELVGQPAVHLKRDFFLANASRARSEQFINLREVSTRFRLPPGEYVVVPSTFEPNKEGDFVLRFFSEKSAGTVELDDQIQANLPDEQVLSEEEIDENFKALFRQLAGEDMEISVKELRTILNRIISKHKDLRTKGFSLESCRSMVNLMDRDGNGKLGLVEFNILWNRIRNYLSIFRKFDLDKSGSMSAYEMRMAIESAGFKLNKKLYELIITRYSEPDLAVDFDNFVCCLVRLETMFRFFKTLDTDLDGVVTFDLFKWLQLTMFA
T1 sequence (P04632 1-268 partner): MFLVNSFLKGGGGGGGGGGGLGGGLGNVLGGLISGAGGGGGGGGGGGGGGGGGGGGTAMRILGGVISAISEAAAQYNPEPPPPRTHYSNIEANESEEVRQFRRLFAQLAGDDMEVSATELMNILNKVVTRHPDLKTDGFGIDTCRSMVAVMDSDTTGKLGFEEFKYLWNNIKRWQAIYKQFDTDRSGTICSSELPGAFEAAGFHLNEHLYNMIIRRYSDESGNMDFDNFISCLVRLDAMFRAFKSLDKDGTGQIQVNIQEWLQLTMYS
Method: Mouse and human heart tissues as well as HEK 293T cells (obtained from the ATCC and cultured according to the protocol of the manufacturer) overexpressing tagged JP2 were washed with PBS and homogenized in lysis buffer (20 mM Tris-HCl, 150 mM NaCl, 2 mM EDTA, and 1% Triton X-100), followed by sonication. Homogenates were centrifuged for 10 minutes at 14,000 rpm at 4° C. Protein content in the supernatant was determined using the BCA assay (Thermo Scientific). Cell extracts were diluted in ice-cold calpain reaction buffer (135 mM NaCl, 5 mM KCl, 1 mM MgCl2, 10 mM glucose, 10 mM Hepes (pH 7.25), 2 mM lactacystin, and 10 mM 2-mercaptoethanol) to a concentration of 4 mg protein/ml. Just prior to starting the protease reaction, CaCl2 was added to achieve a final concentration of 3 mM free Ca^2+ (in the presence of EDTA), as calculated by winmaxc32 (Stanford University). For some experiments, the free Ca^2+ concentration was adjusted to 500 μM, as calculated by winmaxc32. Purified human calpain I (Calbiochem) was added at a concentration of 1 mg of total protein/1 μg of calpain I. Reactions without Ca^2+ or without purified calpain I were used as controls. Reactions were incubated at 30° C. for the indicated time and stopped by adding EDTA to a final concentration of 10 mM and incubating for 5 minutes at 95° C. The reaction products were subjected to Western blotting.

JP2-KD cardiomyocytes = test: Confocal Ca2+ imaging in JP2-KD cardiomyocytes after adenoviral expression; format: cell-based, mouse; conditions: 1-Hz field stimulation
Text: Specifically, conditional shJP2 mice (provided by Dr. Wehrens) (van Oort et al., 2011) were crossed with mice carrying the cardiac-specific α-myosin heavy chain promoter upstream of Cre (% MHC-Cre, also FVB-Tg(Myh6-cre)2182Mds/J, The Jackson Laboratory). The shJP2 mice were maintained on a C57BL/6 background for more than 10 generations. The αMHC-Cre mice were maintained on an FVB background. PCR was used to genotype the offspring. The near complete depletion of JP2 protein in JP2-KD (αMHC-Cre X shJP2) hearts has been reported recently (Chen et al., 2013). JP2-KD mice were sacrificed at 2 months of age for isolation and culture of ventricular cardiomyocytes as described below.
Genecarrior-1 (Epoch Lab) was used to transfect plasmids into HEK293T cells. Isolation and culture of cardiomyocytes were performed as described previously (Guo et al., 2012). […] Ca^2+ Imaging experiments were performed 40 hours after adenoviral infection.
Cells were loaded with Rhod-2AM at 37° C. for 20 minutes, followed by washing with Tyrode's solution at room temperature for 15 minutes before Ca^2+ imaging. Confocal images were acquired using a ×63, 1.3 numerical aperture oil immersion objective mounted on a Zeiss LSM 510 confocal microscope. Confocal line scanning was used to record Ca^2+ signals. Steady-state Ca^2+ transients were recorded in Tyrode's solution containing 1.8 mM Ca^2+ under field stimulation of 1 Hz. At least five steady-state transients for each cell were analyzed and averaged to represent Ca^2+ signals of the cell. Ca^2+ imaging data were analyzed by using a home-complied software, CaTeasy, which is coded in MATLAB 2013a (Mathworks). Briefly, the program normalizes Ca^2+ transient images on a column-by-column basis (512 columns/image). The characteristic parameters of normalized transients were detected automatically. The firing time of every scanning pixel was detected column by column on the basis of the maximum local variability of pixel intensity. The profile of the point-to-point firing time was indicated by a red line overlapping on the Ca^2+ image. Index of desynchronization, defined by the mean absolute deviation of firing time of each scanning pixel (with every 8 pixels binned), was used to evaluate the dyssynchrony of Ca^2+ transients. This automated software for calcium transient analysis is available upon request.

RyR2 and Cav1.2 = test: Coimmunoprecipitation with E-C coupling channels; format: binding, mouse; conditions: anti-HA immunoprecipitation
Text: FIGS. 5A-H. JP2 truncations are nonfunctional in regulating Ca^2+ transients. A) An antibody against the HA tag was used to reveal the localization of adenoviral expression of tagged full-length JP2 and truncations, as indicated, in adult wild-type cardiomyocytes. All the three version of JP2 can be localized in the striated pattern. B) Full-length JP2 and JP2(1-565) forms complexes with RyR2 and Cav1.2 In vivo. An antibody against HA was used for immunoprecipitation […]. The RyR2 and Cav1.2 that were pulled down were detected by Western blot analysis. […] IB, immunoblot. C) Adenovirus-mediated expression of full-length JP2, FLAG-JP2(1-565)-HA, and JP2(566-end)-HA in JP2-KD) cardiomyocytes. D) Representative steady-state Ca^2+ transients under 1-Hz field stimulation. The fluorescence intensity (F) of Ca^2+ imaging was normalized to the baseline (FO). The red lines overlapping on Ca^2+ imaging show the profile of the moment of Ca^2+ transient firing on the scanning line in a point-by-point way. A straighter line means better synchronization of the Ca^2+ transients. Note that expression of full-length JP2, but not JP2 truncations, improves the amplitude and synchronization of Ca^2+ transients. E-G) Summary of Ca^2+ transient amplitude, index of desynchronization (mean absolute deviation of firing time), and duration of 50% decay (T5) (n=68, 70, 70, and 52 for Ad-Empty, Ad-JP2, […], and Ad-JP2(566-end), respectively). Only full-length JP2 Improves the amplitude, synchronization, and decay of Ca^2+ transients. H) Summary of SR Ca^2+ content, which was assessed by caffeine-induced SR Ca^2+ release (n=17, 17, 17, and 12 for Ad-Empty, Ad-JP2, Ad-JP2(1-565), and Ad-JP2(566-end), respectively). **, p<0.01 versus indicated groups; N.S., not significant.
Cleavage at the primary calpain proteolysis site (Arg-565/Thr-566) splits apart the C-terminal SR-binding TM domain and N-terminal plasma membrane-binding MORN domains of JP2. […]

TATA box DNA sequences = test: Gel shift assay with TATA box sequences; format: binding; conditions: GST-purified protein; cMyc or CMV promoter sequences
Text: FIGS. 11A-H. JP2NT is a TATA-box binding protein enriched at transcription start site (TSS) and interacts with basic transcription machinery. […] C) 293T cells were transfected with HA-tagged JP2NT, followed by crosslinking-reversal immunoprecipitation with anti-HA and immunoblotting with anti-polymerase II (Rpb1) or anti-TATA box binding protein (TBP). D-H) JP2NT binds to TATA box DNA sequences in vitro. D-E) Gel shift assays of GST-purified JP2NT binding to WT (D). or mutated TATA box-containing sequences (E) derived from the cMyc promoter. F) Summary of the results of gel shift assays with various of TATA box variants or mutants. Mutation of the core TATA sequences abolished the interaction with GST-JP2NT. G) Deletion of the ARR, but not the N-terminal MORN domains, eliminated JP2NT binding to the TATA box sequence. H) The peptide JP2^331-405 containing the ARR specifically binds to WT TATA box sequence.
TBP specifically binds to TATA boxes, eukaryotic core cis-regulatory elements localized at transcription start site. […] This interaction was abrogated by mutation of the TATA box elements (FIGS. 11E&G and 17B). It was concluded that JP2NT is a DNA binding protein, binding to consensus TATA box represented as TATAA(A/T) or TATATA (FIG. 11F).

[1] = tested on: MEF2C Response Element (MRE) from the desmin enhancer; test: Gel shift assay with MEF2 response element; format: binding; conditions: purified protein
Text: FIGS. 12A-E. JP2NT represses MEF2-mediated transcription by competing for the MEF2 Response Element (MRE). A) Enrichment of MEF2 binding motifs in ChIP-seq dataset. B) Gel shift assay of JP2NT binding to a desmin promoter-derived DNA sequence containing a WT or mutated MRE in vitro. C) Co-immunoprecipitation of HA-tagged JP2NT binding to MEF2C or Histone H3. D) & E) MEF2 activity assays in 293T cells co-transfected with luciferase under the control of an MRE, MEF2C and WT JP2NT (D) or a mutant lacking the ARR (E, JP2NT^ΔARR). n≥3 independent batches of cells; in each batch of experiments, 3 replicates were performed for each transfection; **p<0.01 vs. Ad-Empty.
The MEF2 family, master regulators of hypertrophic genes in cardiomyocytes, binds to the A/T enriched consensus sequence (C/TTA(A/T)4TA G/A), which shares the same core sequence with TATA box. Thus, it was hypothesized that JP2NT directly interacts with MEF2 binding sites.

O=C(O)CN(CCN(CC(=O)O)CC(=O)O)CC(=O)O [EDTA]
JP2 degradation by calpain I (human calpain I): inhibited JP2 degradation

CC(C)CC(NC(=O)OCc1ccccc1)C(=O)NC(CC(C)C)C(=O)NC(Cc1ccc(O)cc1)C(=O)CF (stereo not drawn) [Z-LLY-FMK] (Cbz-Leu-Leu-Tyr-CH2F; configuration not given here)
JP2 degradation by calpain I (human calpain I): inhibited JP2 degradation | JP2 cleavage products and full-length JP2 (human calpain I; lysates of 293T cells overexpressing FLAG/HA-tagged JP2, 3 mM and 500 μM Ca2+): substantial reduction in cleavage products and preservation of full-length JP2

B1: JP2(566-end): C-terminal JP2 truncation, tagged with HA at the C terminus (protein)
chain: TGPPEPPPLEDEQEPEPEPEPEVRRSDSAPPSPVSATVPEEEPPAPRSPVPAKQATLEPKPIVPKAEPKAKARKTEARGLSKAGAKKKGRKEVAQAKEAEVEVEEVPNTVLICMVILLNIGLAILFVHLLTYPYDVPDYA
restoration of Ca2+ transients (JP2-KD cardiomyocytes): failed to restore | interaction with RyR2 and Cav1.2 (RyR2 and Cav1.2): not

B2: GST-JP2^331-405: purified peptide containing the ARR; DNA binding domain of JP2NT (protein, UniProt Q9ET78 331-405, looked up, fragment)
chain: EEGKYRHNVLVKGTKRRVLPLKSSKVRQKVEHGVEGAQRAAAIARQKAEIAASRTSHAKAKAEAAEQAALAANQE
modifications: GST tag
binding to TATA box (TATA box DNA sequences): specifically bound to the consensus but not mutant TATA box | interaction with MEF2C Response Element (MRE) [1]: interacts
